Experimental data as given in publication PMC9636928 (Proceedings of the National Academy of Sciences of the …, 2022).

Biological target: the molecule itself
Test: cryo-EM structure

B1: Transmembrane protein 175 (TMEM175), human (natural protein)
chain: MSQPRTPEQALDTPGDCPPGRRDEDAGEGIQCSQRMLSFSDALLSIIATVMILPVTHTEISPEQQFDRSVQRLLATRIAVYLMTFLIVTVAWAAHTRLFQVVGKTDDTLALLNLACMMTITFLPYTFSLMVTFPDVPLGIFLFCVCVIAIGVVQALIVGYAFHFPHLLSPQIQRSAHRALYRRHVLGIVLQGPALCFAAAIFSLFFVPLSYLLMVTVILLPYVSKVTGWCRDRLLGHREPSAHPVEVFSFDLHEPLSKERVEAFSDGVYAIVATLLILDICEDNVPDPKDVKERFSGSLVAALSATGPRFLAYFGSFATVGLLWFAHHSLFLHVRKATRAMGLLNTLSLAFVGGLPLAYQQTSAFARQPRDELERVRVSCTIIFLASIFQLAMWTTALLHQAETLQPSVWFGGREHVLMFAKLALYPCASLLAFASTCLLSRFSVGIFHLMQIAVPCAFLLLRLLVGLALATLRVLRGLARPEHPPPAPTGQDDPQSQLLPAPC
binding result: binds
